Consider 17 molecules from paper PMC7169973 (ACS chemical biology, 2020).

Experiment [1] deals with T1, 14-3-3σ, full-length, recombinant (human, UniProt P31947 1-248).
T1 sequence (looked up): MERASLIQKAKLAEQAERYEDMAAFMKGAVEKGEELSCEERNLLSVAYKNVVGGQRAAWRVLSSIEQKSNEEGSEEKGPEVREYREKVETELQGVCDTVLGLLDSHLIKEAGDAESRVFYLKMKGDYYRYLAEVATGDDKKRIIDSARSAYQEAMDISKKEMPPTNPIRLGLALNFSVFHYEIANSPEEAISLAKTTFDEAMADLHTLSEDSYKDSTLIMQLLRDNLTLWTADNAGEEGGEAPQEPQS
Kind of experiment: fluorescence polarisation. Background: In fluorescence polarisation assays a small probe gives low polarisation when free and higher when bound to something large.

For experiment [2], the target named is T1, 14-3-3σ, full-length, recombinant. Kind of experiment: fluorescence polarisation. This is another data set of the same source.
The target is the same in experiment [3]. Kind of experiment: ITC. (In ITC the heat of successive injections is recorded.)
Experiment [4] has the same target. Description: ITC. The source holds these as a separate data set.
The target is the same in experiment [5]. Kind of experiment: fluorescence polarisation. The source holds these as a separate data set.
Experiment [6] shares this target. Description: fluorescence polarisation. The source holds these as a separate data set.
The target of experiment [7] is fluorescein-labeled TNFRSF19-ctp (4) (human). Description: fluorescence polarisation.
For experiment [8], the target named is fluorescein-labeled Nup160-ctp (3) (human). Description: fluorescence polarisation.
Experiment [9] addresses fluorescein-labeled TNFRSF19-ctp (4) (human). Description: fluorescence polarisation. This is another data set of the same source.
Experiment [10] deals with fluorescein-labeled Nup160-ctp (3) (human). Kind of experiment: fluorescence polarisation. This is another data set of the same source.

Where two headings read alike, the source gives them in different places. Where no end group is shown, it is not given here. [ ]: non-standard residue; d: D form. fluorescein = fluorescein label on the N-terminus; pT = C[C@@H](OP(=O)(O)O)[C@H](N)C(=O)O; pS = N[C@@H](COP(=O)(O)O)C(=O)O; FAM = fluorescein

For fluorescein-YSGH[pS]L-OH [GpIBα-ctp, fluorescein-labeled hexaphosphopeptide YSGHpSL-COOH], the equilibrium dissociation constant (Kd) in experiment [1] amounted to 22.5 µM; in experiment [2] it was 1.69 µM.

With KYYITGEAEGFPA[pT]V (peptide, UniProt P03372 581-595, looked up) [ERα C-terminal phospholigand (ERα-ctp, 2)], the values for the Kd in experiment [3] and in [4] were 0.02 µM and 0.75 µM, respectively.

In the case of {FAM}-KYYITGEAEGFPA[pT]S (peptide, UniProt P03372 581-595, looked up) [N-FAM-2 variant with C-terminal residue S], the dissociation constant Kd in experiment [5] stood at 3.54 µM; in [6] it was 79.8 µM.

Turning to fluorescein-KRSV[pS]L-OH [GPR15-ctp, fluorescein-labeled hexaphosphopeptide KRSVpSL-COOH], the Kd in [1] amounted to 7.36 µM; in experiment [2], 1.1 µM.

On to {FAM}-KYYITGEAEGFPA[pT]N (peptide, UniProt P03372 581-595, looked up) [N-FAM-2 variant with C-terminal residue N], for which the Kd was determined as 32.4 µM in experiment [5] and 59.5 µM in experiment [6].

fluorescein-ALRRQ[pT]-OH [p27Kip1-ctp, fluorescein-labeled hexaphosphopeptide ALRRQpT-COOH]: the Kd in experiment [1] was determined as 82.2 µM; in experiment [2] it was 39.9 µM.

Take {FAM}-KYYITGEAEGFPA[pT]T (peptide, UniProt P03372 581-595, looked up) [N-FAM-2 variant with C-terminal residue T]: the values for the dissociation constant (Kd) in [5] and in [6] were 1.32 µM and 50 µM, respectively.

Regarding {FAM}-KYYITGEAEGFPA[pT]I (peptide, UniProt P03372 581-595, looked up) [N-FAM-2 variant with C-terminal residue I], the Kd in experiment [5] was determined as 0.06 µM; in experiment [6], 3.03 µM.

For fluorescein-RKKR[pS]V-OH [Task3-ctp, fluorescein-labeled hexaphosphopeptide RKKRpSV-COOH], the Kd came to 3.15 µM in experiment [1] and 0.1 µM in experiment [2].

B1: 14-3-3σ, full-length, recombinant (natural protein)
chain: MERASLIQKAKLAEQAERYEDMAAFMKGAVEKGEELSCEERNLLSVAYKNVVGGQRAAWRVLSSIEQKSNEEGSEEKGPEVREYREKVETELQGVCDTVLGLLDSHLIKEAGDAESRVFYLKMKGDYYRYLAEVATGDDKKRIIDSARSAYQEAMDISKKEMPPTNPIRLGLALNFSVFHYEIANSPEEAISLAKTTFDEAMADLHTLSEDSYKDSTLIMQLLRDNLTLWTADNAGEEGGEAPQEPQS
With B1, the dissociation constant (Kd) in [7] was 38 µM; in experiment [8], 0.25 µM; in experiment [9] it was 538 µM; in experiment [10], 5.34 µM.

{FAM}-KYYITGEAEGFPA[pT]F (peptide, UniProt P03372 581-595, looked up) [N-FAM-2 variant with C-terminal residue F]: the Kd in experiment [5] worked out at 4.03 µM; in experiment [6], 10.5 µM.

As for fluorescein-ARSW[pT]F-OH [IRL9-ctp, fluorescein-labeled hexaphosphopeptide ARSWpTF-COOH], the Kd in experiment [1] was determined as 3.16 µM; in experiment [2], 1.54 µM.

For {FAM}-KYYITGEAEGFPA[pT]G (peptide, UniProt P03372 581-595, looked up) [N-FAM-2 variant with C-terminal residue G], the dissociation constant Kd in experiment [5] is 36.5 µM; in [6], 144 µM.

For the molecule {FAM}-KYYITGEAEGFPA[pT]D (peptide, UniProt P03372 581-595, looked up) [N-FAM-2 variant with C-terminal residue D], the Kd in experiment [5] amounted to 48.2 µM; in [6] it was 173 µM.

Consider {FAM}-KYYITGEAEGFPA[pT]L (peptide, UniProt P03372 581-595, looked up) [N-FAM-2 variant with C-terminal residue L], for which the Kd in experiment [5] was 0.17 µM; in [6], 11 µM.

On to {FAM}-KYYITGEAEGFPA[pT]V (peptide, UniProt P03372 581-595, looked up) [fluorescein-labeled N-FAM-ERα-ctp (N-FAM-2)], for which the figures for the dissociation constant (Kd) in experiment [5] and in [6] were 0.05 µM and 3.61 µM, respectively.

In the case of {FAM}-KYYITGEAEGFPA[pT]A (peptide, UniProt P03372 581-595, looked up) [N-FAM-2 variant with C-terminal residue A], the equilibrium dissociation constant (Kd) is 0.7 µM in experiment [5] and 19.9 µM in experiment [6].

By Kd is commonly meant the free concentration of one partner at which half of the binding sites on the other are occupied at equilibrium, for simple one-to-one binding.
